From article PMC5806685

Target: EYFP-RyR1 (full-length rabbit type 1 ryanodine receptor), expressed in RyR1/RyR3 double-null (R1R3) myotubes (rabbit) (UniProt P11716)
Assay: FRET or BRET

EYFP-RyR1 (full-length rabbit type 1 ryanodine receptor), expressed in RyR1/RyR3 double-null (R1R3) myotubes, P11716 1-5037 (natural protein), sequence (P11716 whole entry): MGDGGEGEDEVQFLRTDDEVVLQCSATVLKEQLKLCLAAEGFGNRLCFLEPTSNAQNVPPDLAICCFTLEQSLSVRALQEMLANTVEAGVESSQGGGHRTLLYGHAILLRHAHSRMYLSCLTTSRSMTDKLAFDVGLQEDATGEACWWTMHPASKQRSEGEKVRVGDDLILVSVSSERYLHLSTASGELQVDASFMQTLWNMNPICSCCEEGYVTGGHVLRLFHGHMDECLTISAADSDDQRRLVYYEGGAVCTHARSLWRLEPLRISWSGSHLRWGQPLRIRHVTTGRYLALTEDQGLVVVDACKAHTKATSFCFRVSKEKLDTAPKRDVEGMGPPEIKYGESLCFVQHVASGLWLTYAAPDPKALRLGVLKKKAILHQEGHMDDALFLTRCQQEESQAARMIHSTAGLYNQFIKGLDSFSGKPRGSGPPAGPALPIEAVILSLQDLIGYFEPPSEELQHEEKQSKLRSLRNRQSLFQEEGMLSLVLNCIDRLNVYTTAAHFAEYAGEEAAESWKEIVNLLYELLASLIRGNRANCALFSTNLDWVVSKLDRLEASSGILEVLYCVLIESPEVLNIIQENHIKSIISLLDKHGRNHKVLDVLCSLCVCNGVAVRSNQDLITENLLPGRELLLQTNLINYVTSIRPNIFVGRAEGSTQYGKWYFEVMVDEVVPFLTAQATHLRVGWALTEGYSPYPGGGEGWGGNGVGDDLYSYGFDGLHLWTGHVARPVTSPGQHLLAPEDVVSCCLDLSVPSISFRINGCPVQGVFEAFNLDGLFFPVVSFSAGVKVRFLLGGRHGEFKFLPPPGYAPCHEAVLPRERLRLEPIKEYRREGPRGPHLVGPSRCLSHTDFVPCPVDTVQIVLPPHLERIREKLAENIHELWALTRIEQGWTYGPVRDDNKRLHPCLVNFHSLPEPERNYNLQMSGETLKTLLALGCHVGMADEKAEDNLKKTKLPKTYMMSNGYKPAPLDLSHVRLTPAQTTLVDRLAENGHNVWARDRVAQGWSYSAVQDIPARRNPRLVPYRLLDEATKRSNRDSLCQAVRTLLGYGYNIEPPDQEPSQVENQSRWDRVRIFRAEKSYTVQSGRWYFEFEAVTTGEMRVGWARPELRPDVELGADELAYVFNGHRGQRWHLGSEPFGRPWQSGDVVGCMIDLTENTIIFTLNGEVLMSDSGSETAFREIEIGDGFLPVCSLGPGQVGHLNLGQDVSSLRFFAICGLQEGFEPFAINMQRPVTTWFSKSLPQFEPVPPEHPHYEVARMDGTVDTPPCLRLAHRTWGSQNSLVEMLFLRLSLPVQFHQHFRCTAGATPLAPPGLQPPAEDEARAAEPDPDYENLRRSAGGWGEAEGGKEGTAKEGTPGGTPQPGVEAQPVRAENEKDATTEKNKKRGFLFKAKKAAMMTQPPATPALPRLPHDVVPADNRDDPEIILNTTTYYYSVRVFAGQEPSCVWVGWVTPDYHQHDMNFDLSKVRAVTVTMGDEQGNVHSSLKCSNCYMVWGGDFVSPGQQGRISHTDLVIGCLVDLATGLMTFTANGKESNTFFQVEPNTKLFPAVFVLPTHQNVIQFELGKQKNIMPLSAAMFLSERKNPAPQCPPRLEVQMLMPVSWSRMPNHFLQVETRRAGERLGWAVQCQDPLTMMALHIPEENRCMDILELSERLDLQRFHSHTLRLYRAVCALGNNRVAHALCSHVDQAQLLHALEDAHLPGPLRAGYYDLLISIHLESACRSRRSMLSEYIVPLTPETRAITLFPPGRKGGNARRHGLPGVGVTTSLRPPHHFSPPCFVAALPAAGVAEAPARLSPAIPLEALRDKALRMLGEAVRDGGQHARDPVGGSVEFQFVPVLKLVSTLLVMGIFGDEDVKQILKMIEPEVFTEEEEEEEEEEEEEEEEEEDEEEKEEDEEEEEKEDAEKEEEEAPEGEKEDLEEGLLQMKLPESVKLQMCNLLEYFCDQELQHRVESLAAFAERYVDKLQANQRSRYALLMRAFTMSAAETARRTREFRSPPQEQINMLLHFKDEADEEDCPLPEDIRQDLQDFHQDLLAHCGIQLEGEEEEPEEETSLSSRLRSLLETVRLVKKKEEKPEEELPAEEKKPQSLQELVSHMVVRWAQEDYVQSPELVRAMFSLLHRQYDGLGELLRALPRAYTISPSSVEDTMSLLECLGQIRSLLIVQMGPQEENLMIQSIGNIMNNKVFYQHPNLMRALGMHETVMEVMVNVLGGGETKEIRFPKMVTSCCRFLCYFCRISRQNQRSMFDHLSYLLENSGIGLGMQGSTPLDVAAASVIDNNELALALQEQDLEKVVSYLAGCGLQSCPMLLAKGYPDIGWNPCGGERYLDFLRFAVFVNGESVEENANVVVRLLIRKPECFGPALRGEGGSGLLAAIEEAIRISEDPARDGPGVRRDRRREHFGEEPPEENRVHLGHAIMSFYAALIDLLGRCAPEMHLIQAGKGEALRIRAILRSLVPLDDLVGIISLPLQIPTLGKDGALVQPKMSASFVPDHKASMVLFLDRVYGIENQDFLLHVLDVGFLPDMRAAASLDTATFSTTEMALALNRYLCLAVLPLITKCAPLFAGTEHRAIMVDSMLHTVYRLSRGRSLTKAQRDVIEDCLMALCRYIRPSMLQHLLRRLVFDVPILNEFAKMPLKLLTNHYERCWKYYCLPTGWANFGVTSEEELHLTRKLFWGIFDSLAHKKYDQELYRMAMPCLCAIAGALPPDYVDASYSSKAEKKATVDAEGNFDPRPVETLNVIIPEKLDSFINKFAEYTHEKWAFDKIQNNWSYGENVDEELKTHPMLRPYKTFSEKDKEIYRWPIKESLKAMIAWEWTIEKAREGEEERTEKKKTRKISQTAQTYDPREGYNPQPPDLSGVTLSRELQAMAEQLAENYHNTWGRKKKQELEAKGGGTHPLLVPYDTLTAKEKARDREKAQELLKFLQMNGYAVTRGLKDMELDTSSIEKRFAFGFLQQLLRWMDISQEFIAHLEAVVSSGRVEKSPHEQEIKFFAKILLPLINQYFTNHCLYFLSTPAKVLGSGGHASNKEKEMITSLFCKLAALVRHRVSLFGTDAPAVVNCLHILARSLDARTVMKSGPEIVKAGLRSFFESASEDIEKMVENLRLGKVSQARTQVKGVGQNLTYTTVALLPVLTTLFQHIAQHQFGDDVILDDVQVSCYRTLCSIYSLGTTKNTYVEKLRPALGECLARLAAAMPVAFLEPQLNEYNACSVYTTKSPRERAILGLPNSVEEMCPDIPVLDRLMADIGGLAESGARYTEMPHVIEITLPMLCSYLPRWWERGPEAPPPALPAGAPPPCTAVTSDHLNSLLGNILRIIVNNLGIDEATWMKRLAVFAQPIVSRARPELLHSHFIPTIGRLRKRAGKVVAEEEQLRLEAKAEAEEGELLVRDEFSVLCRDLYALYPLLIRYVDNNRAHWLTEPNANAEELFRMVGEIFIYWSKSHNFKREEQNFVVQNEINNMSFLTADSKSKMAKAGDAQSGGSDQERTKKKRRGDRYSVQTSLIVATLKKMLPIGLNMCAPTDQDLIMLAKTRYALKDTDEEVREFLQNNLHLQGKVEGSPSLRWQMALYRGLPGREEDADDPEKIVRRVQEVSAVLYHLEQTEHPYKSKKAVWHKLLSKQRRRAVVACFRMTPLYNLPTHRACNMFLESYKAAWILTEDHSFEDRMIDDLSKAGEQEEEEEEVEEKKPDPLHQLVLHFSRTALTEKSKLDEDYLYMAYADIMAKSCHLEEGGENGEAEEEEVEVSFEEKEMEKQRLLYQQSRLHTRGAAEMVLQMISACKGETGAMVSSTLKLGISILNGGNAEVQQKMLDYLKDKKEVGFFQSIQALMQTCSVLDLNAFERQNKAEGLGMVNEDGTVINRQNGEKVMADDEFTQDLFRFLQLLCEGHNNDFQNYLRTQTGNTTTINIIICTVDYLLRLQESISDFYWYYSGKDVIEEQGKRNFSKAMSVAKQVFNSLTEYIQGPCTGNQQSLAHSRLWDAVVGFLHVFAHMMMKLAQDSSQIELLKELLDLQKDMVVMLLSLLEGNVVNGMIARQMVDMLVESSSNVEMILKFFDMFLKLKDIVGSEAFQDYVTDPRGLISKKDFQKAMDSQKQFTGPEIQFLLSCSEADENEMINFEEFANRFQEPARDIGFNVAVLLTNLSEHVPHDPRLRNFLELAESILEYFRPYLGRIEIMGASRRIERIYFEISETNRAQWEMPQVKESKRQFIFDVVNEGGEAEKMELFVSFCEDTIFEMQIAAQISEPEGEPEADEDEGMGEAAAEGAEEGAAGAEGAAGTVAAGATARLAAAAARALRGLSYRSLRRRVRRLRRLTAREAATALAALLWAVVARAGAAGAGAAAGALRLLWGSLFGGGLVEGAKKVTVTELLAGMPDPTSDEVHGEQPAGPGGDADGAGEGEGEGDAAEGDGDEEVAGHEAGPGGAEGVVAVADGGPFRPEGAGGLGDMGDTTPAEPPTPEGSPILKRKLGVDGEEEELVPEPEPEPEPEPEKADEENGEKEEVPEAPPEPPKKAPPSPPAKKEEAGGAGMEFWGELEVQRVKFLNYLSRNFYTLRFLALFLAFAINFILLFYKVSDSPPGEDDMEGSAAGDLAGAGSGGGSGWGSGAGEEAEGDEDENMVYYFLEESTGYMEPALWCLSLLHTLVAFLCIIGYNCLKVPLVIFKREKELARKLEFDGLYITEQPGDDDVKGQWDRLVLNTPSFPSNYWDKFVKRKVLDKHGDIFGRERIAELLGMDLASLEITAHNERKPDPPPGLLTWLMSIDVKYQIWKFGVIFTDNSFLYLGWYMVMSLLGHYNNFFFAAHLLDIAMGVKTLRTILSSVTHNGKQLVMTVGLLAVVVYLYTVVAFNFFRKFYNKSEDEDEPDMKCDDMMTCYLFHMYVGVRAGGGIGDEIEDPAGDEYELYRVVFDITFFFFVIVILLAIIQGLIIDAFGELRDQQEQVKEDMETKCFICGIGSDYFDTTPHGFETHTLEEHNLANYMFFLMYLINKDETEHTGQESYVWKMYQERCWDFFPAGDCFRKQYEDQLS

- FRET efficiency: 8.6%
Substance: EYFP-RyR1 (full-length rabbit type 1 ryanodine receptor), expressed in RyR1/RyR3 double-null (R1R3) myotubes, P11716 1-5037 (natural protein)
